Data taken from PMC8263776, “Calmodulin-dependent KCNE4 dimerization controls membrane targeting” (Scientific Reports, 2021).

B1: KCNE4-CFP [mouse] / KCNE4-YFP [mouse] (parent)
chain 1: MLRMEPLNSTYPSAAASSSPLESHVPSNSSGNGNEYFYILVVMSFYGVFLIGIMLGYMKSKRREKKSSLLLLYKDEERLWGEAMKPLPMMSGLRSGQVPMMLNMLQESVAPALSCTLCSMEGDSVSSESSSPDVHLPIQEEGADDELEETSETPLNDSSEGSSENIHQNS
chain 2: B1 chain 1

Variants of: B1
Test: FRET (CFP/YFP) in cells
Settings: with KCNE4-YFP [mouse]; HEK-293 cells; n > 25 cells; parent: 12; read off a plot

response | Variant
7.2% | chain 1 L69A L70A L71A L72A
